The text below walks through data of publication PMC9352546, “The Casein kinase 1α agonist pyrvinium attenuates Wnt-mediated CK1α degradation via interaction with the E3 ubiquitin ligase component Cereblon” (The Journal of Biological Chemistry, 2022).

The target of this assay is T1, FLAG-tagged Cereblon (CRBN) (human, UniProt Q96SW2-2 1-441).
T1 construct: also called FLAG-CRBN; Wnt-modulated CRBN; source: HEK293T, transfected (pcDNA3.1(+)), cells treated with PBS or Wnt3a, immunopurified from lysate on beads
Kind of assay: pull-down; FLAG-CRBN immunopurified from PBS- or Wnt3a-treated (4 h) HEK293T cells, held on BSA-blocked beads; GST-CK1α preincubated with DMSO or pyrvinium at 4 °C for 10 min, then incubated with the beads in binding buffer at 4 °C for 1 h; one 5-min wash; elution in Laemmli buffer, immunoblot. The note with it: both partners purified. For orientation: In western blotting, separated proteins are transferred to a membrane and probed.

T1 sequence (Q96SW2 other isoform, or with tags, fused parts or gaps): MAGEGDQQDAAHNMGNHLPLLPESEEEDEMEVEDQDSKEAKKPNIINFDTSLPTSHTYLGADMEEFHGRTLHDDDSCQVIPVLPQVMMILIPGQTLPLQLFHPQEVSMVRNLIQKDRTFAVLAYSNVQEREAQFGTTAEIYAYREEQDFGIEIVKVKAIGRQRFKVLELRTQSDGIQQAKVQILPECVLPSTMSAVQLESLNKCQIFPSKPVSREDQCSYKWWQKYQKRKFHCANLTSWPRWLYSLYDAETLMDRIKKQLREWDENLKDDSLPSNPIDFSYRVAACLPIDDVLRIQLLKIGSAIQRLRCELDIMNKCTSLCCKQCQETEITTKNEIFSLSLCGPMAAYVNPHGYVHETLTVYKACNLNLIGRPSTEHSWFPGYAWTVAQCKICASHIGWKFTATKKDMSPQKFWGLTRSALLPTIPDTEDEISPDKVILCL

B1: Recombinant human glutathione-S-transferase (GST)-CK1α protein (natural protein, UniProt P48729-1 1-337, looked up)
chain: MASSSGSKAEFIVGGKYKLVRKIGSGSFGDIYLAINITNGEEVAVKLESQKARHPQLLYESKLYKILQGGVGIPHIRWYGQEKDYNVLVMDLLGPSLEDLFNFCSRRFTMKTVLMLADQMISRIEYVHTKNFIHRDIKPDNFLMGIGRHCNKLFLIDFGLAKKYRDNRTRQHIPYREDKNLTGTARYASINAHLGIEQSRRDDMESLGYVLMYFNRTSLPWQGLKAATKKQKYEKISEKKMSTPVEVLCKGFPAEFAMYLNYCRGLRFEEAPDYMYLRQLFRILFRTLNHQYDYTFDWTMLKQKAAQQAASSSGQGQQAQTPTGKQTDKTKSNMKGF
notes: Preincubated with DMSO or pyrvinium before it was added to the FLAG-CRBN beads; also called GST-tagged CK1α; recombinant CK1α; source: Sf9 insect cells, purified (GenScript)
On to B1, for which the binding result is “binds”.
